Test: yeast display, Sf9 membrane polyspecificity reagent, FACS + sequencing; frameworks hold sequencing errors
Summary of the method: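 Galactose induction of a Saccharomyces cerevisiae BJ5465 synthetic nanobody display library ran 36–48 hours. The cells were then stained for 1 hour at 4 °C with 10% biotinylated, detergent-solubilized Sf9 membrane reagent, pulled down on streptavidin microbeads and FACS-sorted into low and high (top ~1%) gates on expression and reagent-binding fluorescence. Labels for polyreactivity follow the gate of origin.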

Sequence	polyreactivity (PSR sort gate)
QVQLVDSGRGLFQAGGSLRLSCAASGRTSSSNVMGWYRQAPGKERELVASINEGGNTYYADSVKGRFTISRDNATNTVYLQMNSLKPEDTAVYYCATEESGYSSWYGYGYSYDYWGQGTQVTVSS	low polyreactivity
QVQLVDSGRGLVQAGGSLRLSCAASGSTFRWNAMGWYRQAPGKERELVAAIDNSGTSTYYADSVKGRFTISRDNAKNTVYLQMNSLKPDDTAVYYCNVRISNTAYRYPTFDYWGQGTQVTVSS	low polyreactivity
QVQLVDSVGGLVKAGCSLRLSCAASGSTLPVNAKGCYRQAPGKERELVAAINRDGSTIYADSVKRPFTISRDIAKNTVYLKMNRLKPEDTAVYYCAADGFGYPGKRYDFWGQGTQVTVSS	low polyreactivity
QVQLVDSVGGLVQAGGSLRLSCAASGSIFGYYAMAWYRQAPGKERELFASITRSGDTTYYADSVKGRFTISRDNANNTVFLQMNSLKQEDTAVSYCAARRWRWYYDGFVRMDYWGQGTQVTVSS	high polyreactivity
QVQLVEACGGLVQAGGSLRLICAASGNIFAYNAMGWYRQAPGKERELVAAISVIGGTTYYADSVKGRFTISRDNAKNTVYLQMNSLKPEDTAVYSCSVDSVQYGGGYERLHELYYWGQGTQVTVSS	low polyreactivity
QVQLVEAGGCLVHAGGSLRLSCAASGRIFVGNAMGWYRQAPGKERELVAAINNGGTTYYADSVKGRFTIARDNGKNTVYLQMNSLKPEDTAVYHCAATPYRGTRSYLIGELDYWGQGTQVTVSS	low polyreactivity
QVQLVEAGGGLVQAGGRLRLSCAASGRIFGRTAMGWYRQAPGKERELGAAIRRSSASTYYADSVKGRFTISRDNAKNTFYLQMNSLKPEDTAVYYCATQSYSYYGYRYRYAAFDYWGQGTQVTVSS	high polyreactivity
QVQLVEAGGGLVQAGGRLRLSSAASGNIFIWYALGWYRQAPGKERELVAAIRWSGGGTYYADSVKGRFTISRDNAKNTVYFQMNSLKPEDTAVYYCAAESSASWYNFWGYEYWGQGTQVTVSS	high polyreactivity
QVQLVEAGGGLVQAGGSLRFSCAASGSLFRWYAMGWYRQAPGKERELVAAINRGGDSTYYADSVKGRFTISRDNAKNTVYLQMNSLKPEDTAVYYCNAVSSWKLLYSSYDSWGQGTQVTVSS	high polyreactivity
QVQLVEAGGGLVQAGGSLRLIFASSGSTLYLYVMVWYRQAPGKESELVDVISSSSGRTYYADSVKGRFTISRDNAKNSVYLQMNSLKPEDTAVYYCAADNYVGYHWYNYWGQGTQVTVSS	high polyreactivity
QVQLVEAGGGLVQAGGSLRLSCAASGRIFVYYTMGWYRQAPGKERELVAAIIGGGSTNYADSVKGRFTISRDNAKNTVYLQMNSLKPEDTAVYDCAAVRYRYSYVSHSRIYDYWGQGTQVTVSS	high polyreactivity
QVQLVEAGGGLVQAGGSLRLSCAASGRIFYYYAMGWYSQAPGKEREFVAAIRISGGSKNYADSVKGRFTISRDNAKNNVYLQMNSLKPEETAVYYSAARSKYSGIRRAYDYWGQGTQVTVSS	high polyreactivity
QVQLVEAGGGLVQAGGSLRLSCAASGRIIIYNAMGWYRQPPGKERELVAAISSTGGSTNYADSVKGRFTISRDNAMNSVYLQMNSLKPEDTAVYYCNALPGRASLRYNYWGQGTQVTVSS	high polyreactivity
QVQLVEAGGGLVQAGGSLRLSCAASGRISYTYAMGWYRQAPGNERELVAAITDGGSTTYADSVKGRFTISRDNAKNTVYLQMNSLKPEDTAVYYCNADTDSAKSPAYYYWGQGTQVTVSS	low polyreactivity
QVQLVEAGGGLVQAGGSLRLSCGASGRIFQSNAMGGYRLAPGKERELVAAISKSGGSTYYADSVKGRFTISRDNAKNTVYLQMNSLKPEDPAVYYCAAYPPRRMYYWGQGTQVTVSS	high polyreactivity
QVQLVEAGGGLVQAGGSLRLSGAASGYTFGGNAMGWYRPAPGKERELVAGITWTGGTTYYADSVKGRFTISRDNAKNTVYLQMNSLKPEETAVYYCNASLDSQDGDYWGQGTQVTVSS	low polyreactivity
QVQLVEAGGGLVQAGVSLRLSCAASGIIFGSYAMGWYRQAPGKERELVATISYDGGSTYYADSVKGRFTISRDNAKNTVYLQMKSLKPDDTAVSYCAAVYQSWFGLRSYYYWGQGTQVTVSS	high polyreactivity
QVQLVEAGGGLVQAGVSLRLSCAASGLTFVPNAMGWYRQAPGKERELVAAISNNGGRTYYADSVKGRFTISRDNAKNTVYLQMNSLKPEDTAVYYCAKYLSPGERHSYDYWGQGTQVTVSS	high polyreactivity
QVQLVEAGRGLVHAGGSLRLSCDPSGLTFSRYAMGWYRPAPGKESELVPAISSRGGTTYYADSVKGRFTISRDYAKNTVYLQMYSMKPEDTAVYYCAAGYITWGSGNWVVTPYDVWGQGTQVTVSS	high polyreactivity
QVQLVEKGGGLVQAGGSLRLICAASGYIIWPNAMGWYRQAPGKERELVASITRAGSTNYADSVKGRFTISRDNAKNTVYLQMNSLKPEDTAVYYSAAYFWGGYNYWGQGTQVTVSS	low polyreactivity
QVQLVEKRGGLVQAGGILRLSCAASGCILVGYAMGWSRQAPGKERELVAAINYSGGSTNYADSVKGRFTISLDNAKNTVYLQMISLKPEDTAVYYCAARSTARYGYWGQGTQVTVSS	low polyreactivity
QVQLVELGGGLVQAGGSLRLSCAASGGTFPRYAMGWYRQAPGKERELVAAITSRGDRTYYADSVKGRFTISRDNAKNTVYLQMNSLKPEDTAVYYCAARLYYSSYGRVKMDYWGQGTQVTVSS	high polyreactivity
QVQLVESAAGLVQAGGSLRLSCAASGFIFQYYAMGWYRQAPGKERELVAAINRGGGTHYADSVKGRFTISRDNAKNTVYLQMNSLKREDTAVYYCNKVYYWPGSRPSRYEYWGQGTQVTVSS	low polyreactivity
QVQLVESAAGLVQAGGSLRLSCDASGSIFYSYAMGWYRQAPGKERELVAAITDSGDSTYYADCVKGRFTISRDNAKNTVYLQMNSLKPEDTAVYYCAAGFYPYYYWGQGTQVTVSS	low polyreactivity
QVQLVESAARLVQAGASLPLSCPASGRIFYTNAMGCYRQAPGKERELVAVMSWGGDTTYYADSVKGRFTISRDNATNTVYLQMNSLKPEDSAVYYCNAYSGPTYEIYDSWGLGTQVTVSS	low polyreactivity
QVQLVESAGCLVQAAASLRLSCSASGRTFYNYAMGWYRQAPGKEWELVASIRKNGGSTYYADSVKGRFTISRDNAKNTVYFQMNRLKPEDTAVYYCAAGRTVVTGSYYWGQGTQVTVSS	high polyreactivity
QVQLVESAGCLVQAGASLRLSCAASGRIISRNAMGWYRQAPGKERELVAAITWRGGSTYYADSVKGRFTISRDNAKNTVYLQMNSLKPEDTAVYYCNRDYRQYGYAYSGRYYWGQGTQVTVSS	high polyreactivity
QVQLVESAGCLVQAGGSLRLSCAASGSTIYRYAMGWYRQAPGKERELVAAITRTGGSTYADSVKGRFTISRDNAKNSVFLQMNSLKPEDTAVFYCAVQRYYVSSISPFYYWGQGTQVTVSS	low polyreactivity
QVQLVESAGGFVQAGGSLRLSCAASGRIYQQNGLRWYRQAPGKERELVAGINSGVGTNYADSVKGRFTISRDNAKNTVYLQMNSLKPEDTAVFYCAKSQPSYSGDRDYWGQGTQVTVSS	low polyreactivity
QVQLVESAGGFVQAGGSLRLSCAASGSIFTINAMGWYTQAPGKERELVAGIRWRGGSTYYADSVKGRVTISRDNAKNTVYFQMNSLKPEDTAVYYCNTRCLIRKFDYWGQGTQVTVSS	high polyreactivity

Reference: the nanobody polyreactivity screen of Harvey et al. (2022)
